This passage reports stoichiometry N results from paper doi:10.1101/2023.09.22.558821.

As usually defined, the stoichiometry N is the number of molecules, sites or subunits per partner or assembly.

The target of the test is murine CIZ1 C-terminal fragment C181 (terminal 181 amino-acids) (mouse). The test is described as follows: SEC-MALS.

In turn, “murine CIZ1 C-terminal fragment C181 (terminal 181 amino-acids) (domain or fragment)” registered a stoichiometry N of 2.
